Laboratory results published in US11447754B2, “In vitro methods of chemical conversion using non-stereospecific glutathione lyases” (WISCONSIN ALUMNI RESEARCH FOUNDATION, priority 2017, dated 2022).

B1: BaeA: heterodimeric β-aryl etherase of Saro_2872 (SEQ ID NO:40) and Saro_2873 (SEQ ID NO:42) from Novosphingobium aromaticivorans (protein)
chain 1: MSALLYHGEPNGASLTVLAALAETGLDIECRRIDLLAGERHSLPGIVDPVALDLSIEGEGPVLVIDGEAMTESVFLAQYLDEAAGGVGLQPTDAYARWEMMMWCRQITERLSPAAALLGNLATSQSAIAAIPAEDFAILAARIVSDDLRERWQALNDDAVNAAQVADSETKVAAAVDRCEKQLGDGREWLMGTFSIADLVTYSWLAGMEPLRPAAFADAPLVKAWLARTAARPCVQAALARATISEPLRAWAPGPEINRWG
chain 2: MDEVSLYHWEPNANSGKPMLALMEKGVPFSSHYIDMLQFDQHKPEYLAINPQGTIPAMTHNGQVLTESTAIMEYVNDRFDGPDLMPADAQDRWRVRWWMKFMDQWLGPSFSMIGWSVFVGPMVRQRDPAELAAAIDRIPLPERRTAWRKAINGDFSESEMAESRRRVGLGIAKLEEELGKRPYVGSNQYSLADINIFNSTYSLPISQPDLAGKDRTPNIMRWLKRVYTREAVKKTWAMGKTDLAHRYGLIMAEIEG
modifications: Novosphingobium aromaticivorans
B2: SYK6GSTNu: Nu-class GST from Sphingobium sp. SYK-6 encoded by SLG_04120, SEQ ID NO:22 (protein)
chain: MADSDPSMNQPTGYVPPKVWTWDKENGGQFSNINAPTAGARQDVTLPVGEHPIQLYSLGTPNGQKVTIMLEELLAAGFDAEYDAWLIKIYTGEQFGSDFVAINPNSKIPAMMDHGLDPPLRLFESGSMLVYLAEKFGAFLPTEIRKRTETFNWLMWQMGSAPFVGGGFGHFYAYAPFKIEYAIDRYAMETKRQLDVLDKNLADREFMIGDEITIADFAIFPWYGSIMRGGYNAQEFLSTHEYRNVDRWVTQLSERTGVKRGLLVNSAGRPGGGIAERHSAADLDASIKAAEQEAAKTEA
modifications: Sphingobium sp. SYK-6
B3: NaGSTNu: Nu-class glutathione S-transferase from Novosphingobium aromaticivorans DSM 12444 (Saro_2595), SEQ ID NO:18; non-stereospecific glutathione lyase (protein)
chain: MSSEYVPPKVWKWDKANGGAFASVNRPVAGPTSERELPVGKHPFQVYSLGTPNGQKATIMLEELLQLGFSEAEYDAWLIKIFEGDQFTSGFVDINPNSKIPAMVDRSGPEPFRVFESGAILMHLAEKFGVFLPTSGPARAECLSWLFWQVGSAPFIGGGFGHFYNYAPIKIEYAIDRYAMETKRLFDVANRRLAESRYLAGDEYTIADLATYTWFGNIYRGEAYGEAATFLSMHEYEHVGRWVGEIDARPGVLRGRLVNSSKGLAERHDASDFDALPPESLQAIVKGF
modifications: Novosphingobium aromaticivorans
notes: non-stereospecific glutathione lyase

Columns and labels:
Type in all cases: biochemical
[1] = Assays to determine activities and stereospecificities of Saro_2872 and Saro_2873
Method: Cell-free protein synthesis. Cell-free protein synthesis was run essentially as previously described (Makino et al. 2014). The Saro_2872 polypeptide contained a His6-tag and a Tev protease recognition site on its N-terminus that were not removed. The Saro_2873 polypeptide was synthesized in its native form. Synthesized polypeptides were not purified from the synthesis reaction mixture; assays for enzymatic activity were performed by adding aliquots directly from the synthesis reaction. Concentrations of the Saro_2872 and Saro_2873 polypeptides in the reaction mixtures were approximated using the intensities of the bands in an SDS-PAGE gel.
0.1 mM racemic (β(S) and β(R)) MPHPV was combined with 5.8 mM glutathione (GSH) in reaction buffer (RB; 25 mM Tris-HCl (pH 8.0) and 25 mM NaCl). […] These 212 μL reactions were incubated at 30° C. for several hours, then analyzed via HPLC.
HPLC analysis. Analysis and quantification of aromatic compounds were performed using an Ultra AQ C18 5 μm column (Restek) attached to a System Gold HPLC (Beckman Coulter) with running buffers and methods described in Example 1. The eluent was analyzed for light absorbance between 191 and 600 nm, and absorbances at 280 nm were used for quantification of aromatic metabolites by comparing peak areas to those of standards.

[2] = Kinetics analysis of GS-HPV cleavage (conversion into HPV), β(S)-stereoisomer
Method: (§1) Kinetics analysis of GS-HPV cleavage. The Reaction Buffer (RB) consisted of 25 mM Tris-HCl (pH 8.5) and 25 mM NaCl. The β(R)- and β(S)-stereoisomers of GS-HPV were separately generated by incubating racemic MPHPV (0.46 mM) in RB with 5 mM reduced glutathione (GSH) and either 38 μg/mL LigF1 or 36 μg/mL LigE, respectively, for several h. This sample, containing a single GS-HPV stereoisomer, guaiacol, and the unreacted MPHPV stereoisomer, was diluted with RB to achieve the desired concentration of GS-HPV for the time course reaction (0.005, 0.011, 0.022, 0.096, or 0.193 mM). An additional 5 mM GSH (dissolved in RB) was added prior to initiation of each time course. […] Assays were performed at 25° C., and at specified time points, 300 μL of the reaction was removed and combined with 100 μL 1 M HCl (Acros Organics; Geel, Belgium) to stop the reaction before HPLC analysis to quantify HPV formed.
(§2) HPLC analysis. After extracellular aromatics were identified using LC-MS, routine analysis and quantification of aromatics were performed using an Ultra AQ C18 5 μm column (Restek, Bellefonte, Pa.) attached to a System Gold HPLC (Beckman Coulter, Brea, Calif.) with running buffers and chromatography conditions described in FIG. 14. […]

[3] = Kinetics analysis of GS-HPV cleavage (conversion into HPV), β(R)-stereoisomer
Method: as §1, §2

| Molecule | conversion of racemic MPHPV into GS-HPV and guaiacol ([1]; both polypeptides combined, ~24 nM each, 30° C.) | reaction with β(S)-MPHPV ([1]; recombinantly generated Saro_2872-Saro_2873 complex) | kcat/KM with the β(S)-isomer, fold higher than with the β(R)-isomer [2] [fold] | KM with β(R)-GS-HPV, fold higher than with β(S)-GS-HPV [3] [fold] |
| --- | --- | --- | --- | --- |
| B1 | half of the MPHPV was converted | did not react |  |  |
| B2 |  |  | ~10 |  |
| B3 |  |  | ~4 | ~5 |
